Source: patent US10000771B2, “Nuclear targeting sequences” (Yeda Research and Development Co. Ltd., priority 2007, dated 2018)

How the values were obtained:
importin-7 = target: T1, importin-7 (Homo sapiens, UniProt O95373); experiment: Coimmunoprecipitation with importin-7; assay type: binding; conditions: HeLa cells, coimmunoprecipitation with anti GFP Ab, with or without stimulation
T1 construct: endogenous in cells; host or cells: HeLa
Experimental: FIGS. 19A-19C are autoradiographs illustrating that phospho-SPS interacts with importin-7 and releases Nup153c binding without involvment of importin-β. […]. Interaction of ERK2 with Importin-7 is enhanced by EGF stimulation and EPE mutation. HeLa cells overexpressing WT-ERK (WT), ERK-APA (APA), ERK-EPE (EPE) or GFP were serum starved and treated with EGF (50 ng/ml, 10 min). The extracts of the treated cells were then subjected to coimmunoprecipitation using A/G beads pre-conjugated with anti GFP Ab and mild washes. The coimmunoprecipitated importin-7 (first panel) and importin-β (third panel), as well as their loading amounts (panels 2 and 4 respectively) were determined by WB using anti importin-7 (αImp7) and importin-β (αImpβ) Abs. The equal amount of immunoprecipitated ERKs was determined with anti GFP (αGFP; IP) Ab. FIG. 19B. Interaction of 2GFP-SPS and its mutants with importin-7. HeLa cells overexpressing 2GFP, 2GFP-SPS, 2GFP-APA and 2GFP-EPE constructs were subjected to coimmunoprecipitation as described in FIG. 19A (without EGF stimulation). FIG. 19C. Interaction of NUP153 with WTERK2 and its APA and EPE mutants. NUP153c is elevated in APA-ERK2, but reduced in EPE-ERK2. Immunoprecipitated and stringently washed WT-ERK2 (WT), APA-ERK2 (APA) or ERK2 from […] cells pre-treated with or without TPA (250 nM, 15 min) were incubated with 0.5 μg recombinant His-Nup153c. […]

COS7 cells = experiment: Subcellular fractionation of GFP-ERK2 constructs; assay type: cell-based; conditions: 48 hr after transfection, serum-starved
Experimental: FIG. 6 is an autoradiograph illustrating the subcellular fractionation of WT-GFP-ERK2 (WT), APA-GFP-ERK2 (APA), or EPE-GFP-ERK2 (EPE). COS7 cells were grown in 10 cm plates and transfected with the above ERK2 constructs. Twenty-four hr after transfection the cells were serum-starved for 16 hr and subjected to cellular fractionation as described under materials and Methods. Western blot analysis of aliquots of the fractions were stained with anti GFP Ab to detect the ERK2 and its mutant, and with anti tubulin and anti c-Jun Abs as markers for the cytoplasmic and nuclear fractions respectively.
Cellular Fractionation: Transfected COS7 cells were starved (0.1% FBS) for 16 h, after which they were washed with ice-cold PBS, suspended in ice-cold buffer H, and centrifuged (12,000×g, 5 min). Then, the nuclear and cytosolic fractions were isolated as described [H. Rubinfeld, T. Hanoch, R. Seger, J. Biol. Chem. 274, 30349 (1999)]. Briefly, the pellets were suspended in 0.1% NP-40 followed by centrifugation (12,000×g, 5 min). The supernatant, containing the cytosolic fraction, was boiled in sample buffer. The pellet was suspended in extraction buffer (420 mM Nacl, 50 mM β-glycerophosphate, 0.5 mM Na3VO4, 1.5 mM MgCl2, 0.2 mM EDTA, 1 mM DTT, 25% glycerol), incubate on ice for 10 min, sonicated (50 W, 2×7 sec), and centrifuged (12,000×g, 5 min). […]

CHO cells = experiment: Fluorescence microscopy of ERK2 constructs (subcellular localization); assay type: cell-based; conditions: overexpressed in CHO (and COS7) cells, serum-starved, fluorescent microscope
Experimental: FIGS. 1A-1R are photomicrographs illustrating the role of SPS in the non-regulated accumulation of ERK2 in the nucleus. CHO (FIGS. 1A-F and 1M-R) or COS7 cells (FIGS. 1G-L) were grown on cover slips and transfected with WT-ERK2, or the mutants 244-6A and Δ244-6. Twenty-four hr following transfection, the cells were serum-starved (16 hr), fixed, stained with DAPI and visualized using a fluorescent microscope.
FIGS. 2A-2X are photomicrographs illustrating the role of SPS in the stimulated nuclear translocation of ERK2. CHO cells were grown on cover slips and co-transfected with HA-MEK1 together with either WT-ERK2, 244-6A, or Δ244-6. Twenty-four hr after transfection, the cells were serum starved for 16 hours, treated with TPA (250 nM, 15 min), except in WT-10 where the cells were treated with 10 nM TPA for 15 min. After treatments the cells were fixed and stained with either anti-HA Ab or DAPI.
FIGS. 5A-5F are photomicrographs illustrating that mutating the Ser residues in the SPS to Glu induces the nuclear accumulation of ERK2. CHO cells were grown on cover slips and transfected with WT-GFP-ERK2 (WT), APA-GFP-ERK2 (APA), or EPE-GFP-ERK2 (EPE). Twenty-four hr after transfection, the cells were serum-starved, fixed, stained with DAPI and visualized by a fluorescent microscope.
FIGS. 7A-7H are photomicrographs illustrating that EPE-ERKs translocates to the nucleus faster than WT-ERK. CHO cells were transfected with WT-GFP-ERK2 (WT) and EPE-GFP-ERK2 (EPE). Eight (FIGS. 7A-D) or twelve (FIGS. 7E-H) hours after transfection the cells were fixed, stained with DAPI and visualized by a fluorescent microscope.
Immunofluorescence Microscopy. Cells were fixed (30 min in 3% paraformaldehyde in PBS or 10 min with ice-cold methanol), followed by 5-min permeabilization with 0.2% Triton X-100 in PBS (23° C.). The fixed cells were sequentially incubated with the appropriate Abs (45 min) followed by rhodamine-conjugated secondary Abs (45 min) and DAPI. Slides were visualized using a fluorescence microscope (Nikon, Japan) at 400× magnifications. […]

T1 sequence (O95373 whole entry): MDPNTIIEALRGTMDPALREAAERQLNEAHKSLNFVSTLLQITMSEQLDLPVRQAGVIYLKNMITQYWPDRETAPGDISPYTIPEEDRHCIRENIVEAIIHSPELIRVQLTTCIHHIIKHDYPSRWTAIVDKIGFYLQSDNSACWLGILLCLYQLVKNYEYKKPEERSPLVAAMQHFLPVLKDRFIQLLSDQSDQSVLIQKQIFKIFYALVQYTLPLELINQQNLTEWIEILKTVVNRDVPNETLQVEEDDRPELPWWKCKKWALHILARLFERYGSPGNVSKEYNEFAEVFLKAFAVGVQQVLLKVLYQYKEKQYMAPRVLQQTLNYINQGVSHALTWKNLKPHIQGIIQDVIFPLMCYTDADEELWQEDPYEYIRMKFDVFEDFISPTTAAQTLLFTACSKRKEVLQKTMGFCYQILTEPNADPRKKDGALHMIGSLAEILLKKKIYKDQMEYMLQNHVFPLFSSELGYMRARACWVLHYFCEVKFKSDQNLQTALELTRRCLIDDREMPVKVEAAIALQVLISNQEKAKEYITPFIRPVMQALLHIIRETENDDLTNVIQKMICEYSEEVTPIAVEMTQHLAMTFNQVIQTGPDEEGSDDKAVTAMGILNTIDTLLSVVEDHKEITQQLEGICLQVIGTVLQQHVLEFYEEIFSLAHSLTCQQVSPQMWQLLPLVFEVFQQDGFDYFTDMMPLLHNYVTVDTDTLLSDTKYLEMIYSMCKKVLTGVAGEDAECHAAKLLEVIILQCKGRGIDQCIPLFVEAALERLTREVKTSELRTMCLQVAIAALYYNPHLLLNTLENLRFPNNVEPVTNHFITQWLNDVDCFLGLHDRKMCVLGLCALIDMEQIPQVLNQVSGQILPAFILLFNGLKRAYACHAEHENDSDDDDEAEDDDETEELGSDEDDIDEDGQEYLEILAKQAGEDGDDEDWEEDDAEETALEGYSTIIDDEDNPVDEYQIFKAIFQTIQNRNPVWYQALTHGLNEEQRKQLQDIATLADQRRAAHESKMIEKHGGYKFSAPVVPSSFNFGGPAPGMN

- interaction of ERK2 constructs with importin-7 (importin-7): reduced the interaction
B1: APA-ERK2: GFP-ERK2 with the two Ser residues of the SPS sequence replaced by Ala (protein)
chain: MAAAAAAGPEMVRGQVFDVGPRYTNLSYIGEGAYGMVCSAYDNLNKVRVAIKKISPFEHQTYCQRTLREIKILLRFRHENIIGINDIIRAPTIEQMKDVYIVQDLMETDLYKLLKTQHLSNDHICYFLYQILRGLKYIHSANVLHRDLKPSNLLLNTTCDLKICDFGLARVADPDHDHTGFLTEYVATRWYRAPEIMLNSKGYTKSIDIWSVGCILAEMLSNRPIFPGKHYLDQLNHILGILGAPAQEDLNCIINLKARNYLLSLPHKNKVPWNRLFPNADSKALDLLDKMLTFNPHKRIEVEQALAHPYLEQYYDPSDEPIAEAPFKFDMELDDLPKEKLKELIFEETARFQPGYRS
modifications: left off: large carriers
- localized in the nucleus (COS7 cells): ~5%
- subcellular localization in quiescent cells (CHO cells): cytoplasmic distribution
